Results on 2 molecules are retold here after PMC10303457 (2023).

The term Kd denotes the free concentration of one partner at which half of the binding sites on the other are occupied at equilibrium, for simple one-to-one binding. Low values mean tighter binding, high ones weaker binding.

Common to all, as to test: FP
The target of test [1] is T1, Human IMPα3 aa 64–521 (lacking the IMPβ binding domain) (human, UniProt O00629 64-521).
T1 chain: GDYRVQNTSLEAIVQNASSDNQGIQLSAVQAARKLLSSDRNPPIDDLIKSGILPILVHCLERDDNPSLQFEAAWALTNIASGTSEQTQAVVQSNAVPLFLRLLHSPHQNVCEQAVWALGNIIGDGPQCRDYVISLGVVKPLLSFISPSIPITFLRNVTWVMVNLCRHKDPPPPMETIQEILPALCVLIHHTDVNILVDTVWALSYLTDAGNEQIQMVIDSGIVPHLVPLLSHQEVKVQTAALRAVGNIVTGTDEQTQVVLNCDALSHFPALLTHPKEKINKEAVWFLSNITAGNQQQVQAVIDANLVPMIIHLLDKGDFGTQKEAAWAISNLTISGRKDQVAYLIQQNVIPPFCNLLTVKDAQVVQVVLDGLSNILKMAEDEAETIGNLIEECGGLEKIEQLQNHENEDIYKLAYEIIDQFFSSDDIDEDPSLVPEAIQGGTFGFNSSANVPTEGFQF

Test [2] addresses Human IMPα5 aa 74–538 (lacking the IMPβ binding domain) (human, UniProt P52294 74-538).
For test [3], the target named is Human IMPα1 aa 71–529 (lacking the IMPβ binding domain) (human, UniProt P52292 71-529).

No end group written: not given here.

Sequence of Human IMPα5 aa 74–538 (lacking the IMPβ binding domain) (P52294 74-538): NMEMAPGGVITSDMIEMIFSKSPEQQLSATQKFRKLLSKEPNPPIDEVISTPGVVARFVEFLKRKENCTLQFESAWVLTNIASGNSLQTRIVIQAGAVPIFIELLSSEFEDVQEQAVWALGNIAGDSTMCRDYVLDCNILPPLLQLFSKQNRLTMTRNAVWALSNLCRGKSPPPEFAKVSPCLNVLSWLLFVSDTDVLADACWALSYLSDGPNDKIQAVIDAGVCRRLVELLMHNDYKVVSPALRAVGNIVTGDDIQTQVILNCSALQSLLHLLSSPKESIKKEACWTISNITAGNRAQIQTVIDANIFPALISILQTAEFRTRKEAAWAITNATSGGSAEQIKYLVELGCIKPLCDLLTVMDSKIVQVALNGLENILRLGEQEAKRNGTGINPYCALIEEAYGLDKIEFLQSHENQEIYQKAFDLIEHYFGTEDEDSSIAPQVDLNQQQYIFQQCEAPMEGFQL

B1: FITC-labelled HeV M NLS2 peptide (peptide)
peptide: VRRAGKYYSVEYCKRKID
modifications: also: FITC-labelled, site not given here
In test [1], B1 had a Kd of 11500 nM.

B2: FITC-labelled HeV M NLS1 peptide (peptide)
peptide: SGKRKKIRTIAAYPLGVGKS
modifications: also: FITC-labelled, site not given here
For the molecule B2, the results for the Kd in test [1], in test [2] and in test [3] were 2470 nM, 1470 nM and 560 nM, respectively.
